# “Also recorded” adds a separate entry of the source. Bridge positions count the residues as written; N and C are the ends. Square brackets hold non-standard residues; d marks the D form. Peptide text beside a SMILES is read from it. * marks the point of attachment. DOTA = O=C(O)CN1CCN(CC(=O)O)CCN(CC(=O)*)CCN(CC(=O)O)CC1; dPhe(4-NHCONH2) = NC(=O)Nc1ccc(C[C@@H](N)C(=O)O)cc1; Dihydroorotyl(S) = O=C1C[C@@H](C(=O)*)NC(=O)N1; Phe(4-Cl) = N[C@@H](Cc1ccc(Cl)cc1)C(=O)O; Phe(4-NH2) = Nc1ccc(C[C@H](N)C(=O)O)cc1
# Legend:
# [1] = tested on: bone marrow, spleen, kidneys and other organs; experiment: Histopathology of normal organs (treatment-related microscopic observations); type: in vivo, Swiss Nude-Foxn1nu mice; settings: for Spleen, extramedullary haematopoiesis, mean score: vehicle 3.7; for Bone marrow, eosinophilic vacuolated cells, number of mice: vehicle 0
# Experimental: Once fixed, tumours, spleen, bone marrow (femur), jejunum, colon, tail (injection site), and kidneys were processed to paraffin blocks and tissues slides produced for immunohistochemical analyses or stained with haematoxylin and eosin (H&E) or sirius red (collagen staining) for histopathological examination.
# All the slides were evaluated by a board-certified veterinary pathologist (S.L.) using a light microscope (Olympus BX41). The pH2AX and SST2 signal intensities were scored using a semi-quantitative approach (H-score), by multiplying the signal intensity score (0, absent; 1, weak; 2, moderate; 3, strong) with the percentage of labelled cells. The H-score, which ranges from 0 to 300, gives the relative weight of staining in a given tumour sample. Regarding the histopathological examination, the number of mitoses was counted in the areas of tumours with the highest mitotic figures in 1 high-power field at the objective 40. The severity of fibrosis was evaluated on a classical toxicologic pathology scale ranging from 0 (absent) to 5 (severe).
# [2] = target: T1, SST2 (AR42J rat pancreatic tumour membranes) (Rattus norvegicus, UniProt P30680); experiment: Saturation binding assay on AR42J cell membranes; settings: AR42J cell membrane suspension 10 µg/well; radioligand 0.075-10 nM; one-site binding model; γ-counter; mean ± SEM
# T1 construct: which is not the case for the AR42J model endogenously expressing SST2; host or cells: AR42J rat acinar pancreatic tumour cell line (membrane preparation)
# T1 sequence (P30680 whole entry): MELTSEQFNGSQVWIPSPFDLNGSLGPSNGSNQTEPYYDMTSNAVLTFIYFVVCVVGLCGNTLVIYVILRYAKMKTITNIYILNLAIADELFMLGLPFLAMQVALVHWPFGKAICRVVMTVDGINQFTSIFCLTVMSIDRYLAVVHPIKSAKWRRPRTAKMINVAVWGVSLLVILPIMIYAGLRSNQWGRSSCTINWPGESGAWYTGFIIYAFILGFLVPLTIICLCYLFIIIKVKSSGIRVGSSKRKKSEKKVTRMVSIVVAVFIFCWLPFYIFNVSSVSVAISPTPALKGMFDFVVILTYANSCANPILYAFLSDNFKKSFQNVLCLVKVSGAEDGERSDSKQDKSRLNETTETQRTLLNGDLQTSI
# Experimental: The SST2-expressing AR42J, acinar pancreatic tumour cell line derived from a transplantable tumour of a rat exocrine pancreas, was provided by ATCC (LGC Standards, Molsheim, France). Cells were cultured in RPMI 1640 medium (Dutscher, Bernolsheim, France), supplemented with 10% foetal calf serum (PAN-Biotech, Aidenbach, Germany), in a humidified atmosphere at 37 °C with 5% CO2. AR42J membranes were obtained by sonication in 50 mM Tris–HCl, pH 7.4, and centrifugation at 39,000× g for 10 min at 4 °C. The pellet was resuspended in the same buffer and centrifuged at 50,000 ×g for 10 min at 4 °C, and membranes in the resulting pellet were stored at −80 °C until further use.
# Saturation binding assays were performed in vitro using AR42J cell membrane suspension (10 µg/well) incubated with increased concentrations (ranging between 0.075 and 10 nM) of the radioligand. […] Membrane-bound radio-peptide was counted in a γ-counter (COBRA 5003, Packard Instruments). The number of binding sites per cell was calculated and fitted to a one-site binding model in GraphPad Prism 8 to determine the dissociation constant (KD) and the number of binding sites (Bmax).
# [3] = tested on: AR42J pancreatic tumour-bearing mice; experiment: In vivo biodistribution (radioactivity uptake in tumour and organs); settings: for Tumour radioactivity uptake / Femur radioactivity uptake / Spleen radioactivity uptake / Adrenals radioactivity uptake / Kidneys radioactivity uptake / Tail radioactivity uptake: 96 h after fourth injection, mean; for Tumour radioactivity uptake: SST2 expression High; for Femur radioactivity uptake / Spleen radioactivity uptake: SST2 expression Minimal; for Adrenals radioactivity uptake: SST2 expression Moderate; for Kidneys radioactivity uptake / Tail radioactivity uptake: SST2 expression None; for Correlation of radioactivity uptake with SST2 expression levels in organs: except in the kidneys
# Experimental: (§1) Healthy female Swiss Nude-Foxn1nu mice, of 7 weeks old, were obtained from Charles River (Ecully, France). The animals were housed and cared for according to French and European regulations on animal experimentation. All procedures with animals were submitted to the Institutional Animal Care and Use Committee of Oncodesign (CNREEA Agreement N°91). Animal physical well-being was monitored on a daily basis, and animal weight was measured at least twice a week. Tumours were induced by subcutaneously injecting 1 × 10^7 AR42J cells in 200 μL of RPMI 1640 into the right flank of the mice. In order to improve cell engraftment, AR42J tumour cell implantation was performed 72 h after whole-body irradiation with a γ-source (2 Gy 60Co; BioMep, Bretenières, France).
# (§2) All test substances, including the mixture of radiolabelling buffer and 0.9% NaCl solution administered in the vehicle group, were intravenously injected into the caudal vein once a week for 4 consecutive weeks. The treatment schedule was determined by the growth kinetics of the AR42J tumour model. The day of randomisation was considered as day 0. […] Tumour growth delay was estimated by calculating the median time taken to reach a tumour volume of 850 mm^3. Animals were sacrificed once their tumour volume exceeded 1500 mm^3. The study was stopped on day 83 because only 1 and 3 animals remained with non-progressing tumours in groups 3 and 4, respectively.
# (§3) Twelve mice (3 in each group) were sacrificed at 96 h after the fourth administration of the test substances to evaluate at the same time toxicity and haematological parameters, and radioactivity uptake in tumours and organs after 4 cycles. The remaining 50 mice (10 in both groups 1 and 4, and 15 in both groups 2 and 3) were either sacrificed for ethical reasons on the last day of the study, on day 83. At 96 h, following the last treatment administration, individual tumours and organs of interest were collected, blotted dry, weighted, fixed in formalin, and the amount of radioactivity present in each organ was quantified using a γ-counter. The radioactivity uptake in tumour and organs was determined and expressed as MBq/g of tissue as well as percentage injected dose/g of tissue (%ID/g).
# in vivo = settings: female, Swiss Nude-Foxn1nu, mouse, in vivo, iv, total radioactivity
# Experimental: as §1, §2, §3
# kidney = settings: human, in vivo; cited from earlier work
# SST2-positive NETs = settings: in vivo; cited from earlier work
# human and rat SST2 = tested on: human and rat SST2; parameters: method as in PMID 19910453; settings: ref [10]; cited from earlier work
# [4] = 15 MBq, Tail uptake (injection site), 15 MBq x 4, 96 h after fourth injection, mean (SEM)
# [5] = 15 MBq, Tumour uptake, 15 MBq, i.v. once a week x 4, 96 h after fourth injection, mean (SEM)
# [6] = 15 MBq, compared with [^177Lu]Lu-DOTA-TATE at 15 or 30 MBq, 96 h
compound,measurement,setting,value
"C[C@@H](O)[C@H](NC(=O)[C@@H]1CSSC[C@H](NC(=O)[C@@H](Cc2ccccc2)NC(=O)CN2CCN(CC(=O)O)CCN(CC(=O)O)CCN(CC(=O)O)CC2)C(=O)N[C@@H](Cc2ccc(O)cc2)C(=O)N[C@H](Cc2c[nH]c3ccccc23)C(=O)N[C@@H](CCCCN)C(=O)N[C@@H]([C@@H](C)O)C(=O)N1)C(=O)O [[^177Lu]Lu-DOTA-TATE, metal not drawn]","Spleen, extramedullary haematopoiesis, mean score","[1]; 30 MBq x 4, 96 h",2.3
same,"Bone marrow, eosinophilic vacuolated cells, number of mice","[1]; 30 MBq x 4, end of study, 11 mice examined",one animal
same,Kd,[2],0.48 ± 0.2 nM
same,Tumour radioactivity uptake,[3]; 15 MBq x 4,1.0 MBq/g
same,Femur radioactivity uptake,[3]; 15 MBq x 4,0.006 MBq/g
same,Spleen radioactivity uptake,[3]; 15 MBq x 4,0.0032 MBq/g
same,Adrenals radioactivity uptake,[3]; 15 MBq x 4,0.11 MBq/g
same,Kidneys radioactivity uptake,[3]; 15 MBq x 4,0.066 MBq/g
same,Tail radioactivity uptake,[3]; 15 MBq x 4,0.01 MBq/g
same,Correlation of radioactivity uptake with SST2 expression levels in organs,[3]; 15 MBq,"overall well-correlated with SST2 expression levels in different organs, except in the kidneys"
same,Tumour radioactivity uptake,[3]; 30 MBq x 4,2.2 MBq/g
same,Femur radioactivity uptake,[3]; 30 MBq x 4,0.008 MBq/g
same,Spleen radioactivity uptake,[3]; 30 MBq x 4,0.006 MBq/g
same,Adrenals radioactivity uptake,[3]; 30 MBq x 4,0.23 MBq/g
same,Kidneys radioactivity uptake,[3]; 30 MBq x 4,0.20 MBq/g
same,Tail radioactivity uptake,[3]; 30 MBq x 4,0.016 MBq/g
same,Correlation of radioactivity uptake with SST2 expression levels in organs,[3]; 30 MBq,"overall well-correlated with SST2 expression levels in different organs, except in the kidneys"
same,tissue uptake at 96 h,"in vivo; 15 MBq, Adrenals uptake",0.59 %ID/g
same,tissue uptake at 96 h,"in vivo; 15 MBq, Femur uptake",0.034 %ID/g
same,tissue uptake at 96 h,"in vivo; 15 MBq, Kidneys uptake",0.36 %ID/g
same,tissue uptake at 96 h,"in vivo; 15 MBq, Spleen uptake",0.018 %ID/g
same,tissue uptake at 96 h,in vivo; [4],0.055 %ID/g
same,tissue uptake at 96 h,in vivo; [5],5.6 %ID/g
same,tissue uptake at 96 h,"in vivo; 30 MBq, Adrenals uptake",0.6 %ID/g
same,tissue uptake at 96 h,"in vivo; 30 MBq, Femur uptake",0.022 %ID/g
same,tissue uptake at 96 h,"in vivo; 30 MBq, Kidneys uptake",0.51 %ID/g
same,tissue uptake at 96 h,"in vivo; 30 MBq, Spleen uptake",0.015 %ID/g
same,tissue uptake at 96 h,"in vivo; 30 MBq, Tail uptake (injection site), 30 MBq x 4, 96 h after fourth injection, mean (SEM)",0.042 %ID/g
same,tissue uptake at 96 h,"in vivo; 30 MBq, Tumour uptake, 30 MBq, i.v. once a week x 4, 96 h after fourth injection, mean (SEM)",5.8 %ID/g
"C[C@@H](O)[C@@H]1NC(=O)[C@H](CCCCN)NC(=O)[C@@H](Cc2ccc(NC(N)=O)cc2)NC(=O)[C@H](Cc2ccc(NC(=O)[C@@H]3CC(=O)NC(=O)N3)cc2)NC(=O)[C@H](NC(=O)[C@H](Cc2ccc(Cl)cc2)NC(=O)CN2CCN(CC(=O)O)CCN(CC(=O)O)CCN(CC(=O)O)CC2)CSSC[C@@H](C(=O)N[C@H](Cc2ccc(O)cc2)C(N)=O)NC1=O [[^177Lu]Lu-satoreotide tetraxetan, metal not drawn] ({DOTA}-[Phe(4-Cl)][dC][Phe(4-NH2)](Dihydroorotyl(S))[dPhe(4-NHCONH2)]KTC[dY]-NH2; disulfide 2-7)",Renal uptake and potential renal toxicity,kidney,limited
same,"Bone marrow, myeloid/erythroid ratio, mean score","[1]; 15 MBq x 4, 96 h, vehicle 2.3",3.0
same,"Spleen, extramedullary haematopoiesis, mean score","[1]; 15 MBq x 4, 96 h",2.3
same,"Bone marrow, eosinophilic vacuolated cells, number of mice","[1]; 15 MBq x 4, end of study, examined 11 (DOTATATE), 7 (satoreotide)",one animal
same,"Bone marrow, myeloid/erythroid ratio, mean score","[1]; 15 MBq x 4, end of study, vehicle 1.2",2.7
same,Kd,[2],0.088 ± 0.01 nM
same,Safety profile,SST2-positive NETs,manageable safety profile
same,Tumour radioactivity uptake,[3]; 15 MBq x 4,3.5 MBq/g
same,Femur radioactivity uptake,[3]; 15 MBq x 4,0.014 MBq/g
same,Spleen radioactivity uptake,[3]; 15 MBq x 4,0.013 MBq/g
same,Adrenals radioactivity uptake,[3]; 15 MBq x 4,0.12 MBq/g
same,Kidneys radioactivity uptake,[3]; 15 MBq x 4,0.51 MBq/g
same,Tail radioactivity uptake,[3]; 15 MBq x 4,0.015 MBq/g
same,Mean femur radioactivity uptake versus [^177Lu]Lu-DOTA-TATE,[3]; [6],two times higher
same,Mean kidney radioactivity uptake versus [^177Lu]Lu-DOTA-TATE,[3]; [6],up to eight times higher
same,Mean tumour radioactivity uptake versus [^177Lu]Lu-DOTA-TATE,[3]; [6],up to three times higher; also recorded: approximately three times higher tumour uptake
same,Correlation of radioactivity uptake with SST2 expression levels in organs,[3]; 15 MBq,"overall well-correlated with SST2 expression levels in different organs, except in the kidneys"
same,tissue uptake at 96 h,"in vivo; 15 MBq, Adrenals uptake",0.7 %ID/g
same,tissue uptake at 96 h,"in vivo; 15 MBq, Femur uptake",0.08 %ID/g
same,tissue uptake at 96 h,"in vivo; 15 MBq, Kidneys uptake",2.9 %ID/g
same,tissue uptake at 96 h,"in vivo; 15 MBq, Spleen uptake",0.072 %ID/g
same,tissue uptake at 96 h,in vivo; [4],0.082 %ID/g
same,tissue uptake at 96 h,in vivo; [5],20 %ID/g
Pasireotide,Species difference human versus rat SST2,human and rat SST2,species dissimilarities between human and rat SST2

# Reference: article PMC9506113 (Pharmaceuticals, 2022)
